In patent US20040208880A1 (University of Texas, published 2004):
Numbering of substitutions follows the chain as printed. In names and notes the source's numbering stands.

T1: estrogen receptor alpha (ER), full-length (UniProt P03372 1-595)
T1 construct: Used as in vitro translated 35S-labeled full-length ER and as the endogenous ER of human cell lines (Ishikawa, MCF-7 derivatives); also called ERα; ERá
T1 sequence (looked up): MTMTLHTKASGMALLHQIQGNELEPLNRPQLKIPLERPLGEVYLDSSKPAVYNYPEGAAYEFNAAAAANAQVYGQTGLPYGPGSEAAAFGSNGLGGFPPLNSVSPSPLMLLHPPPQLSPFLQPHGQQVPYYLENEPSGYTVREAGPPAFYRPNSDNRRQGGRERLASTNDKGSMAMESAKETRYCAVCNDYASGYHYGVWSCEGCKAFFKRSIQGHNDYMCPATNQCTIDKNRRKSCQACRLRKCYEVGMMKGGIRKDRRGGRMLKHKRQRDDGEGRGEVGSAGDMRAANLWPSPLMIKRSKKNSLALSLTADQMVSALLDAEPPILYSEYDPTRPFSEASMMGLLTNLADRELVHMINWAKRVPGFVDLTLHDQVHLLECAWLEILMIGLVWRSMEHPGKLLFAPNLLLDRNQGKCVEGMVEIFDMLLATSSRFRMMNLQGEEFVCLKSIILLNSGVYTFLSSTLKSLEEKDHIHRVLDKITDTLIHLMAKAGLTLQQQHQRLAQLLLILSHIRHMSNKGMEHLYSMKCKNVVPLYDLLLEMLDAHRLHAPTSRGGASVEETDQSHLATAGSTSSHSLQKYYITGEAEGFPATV

B1: GST-Pak1 Cdc42/Rac-interacting (CRIB) domain (other)
chain: ISLPSDFEHTIHVGFDAVTGEFTGMPEQWARLLQTSNITKSEQKKNPQAVLDVLEFYNSKKTSNSQKYMSFTDKS
notes: not shown: glutathione-S-transferase (GST) fusion partner
B2: HA-tagged T423E Pak1 (catalytically active Pak1) (enzyme)
chain: MSNNGLDIQDKPPAPPMRNTSTMIGVGSKDAGTLNHGSKPLPPNPEEKKKKDRFYRSILPGDKTNKKKEKERPEISLPSDFEHTIHVGFDAVTGEFTGMPEQWARLLQTSNITKSEQKKNPQAVLDVLEFYNSKKTSNSQKYMSFTDKSAEDYNSSNALNVKAVSETPAVPPVSEDEDDDDDDATPPPVIAPRPEHTKSVYTRSVIEPLPVTPTRDVATSPISPTENNTTPPDALTRNTEKQKKKPKMSDEEILEKLRSIVSVGDPKKKYTRFEKIGQGASGTVYTAMDVATGQEVAIKQMNLQQQPKKELIINEILVMRENKNPNIVNYLDSYLVGDELWVVMEYLAGGSLTDVVTETCMDEGQIAAVCRECLQALEFLHSNQVIHRDIKSDNILLGMDGSVKLTDFGFCAQITPEQSKRSEMVGTPYWMAPEVVTRKAYGPKVDIWSLGIMAIEMIEGEPPYLNENPLRALYLIATNGTPELQNPEKLSAIFRDFLNRCLDMDVEKRGSAKELLQHQFLKIAKPLSSLTPLIAAAKEATKNNH
notes: Expressed in MCF-7 cells under a Tet-on promoter; also called HA-Pak1-T423E; not shown: HA tag
B3: p21-activated protein kinase 1 (Pak1), full-length, amino acids 1-545 (enzyme)
chain: B2 chain with E423T
notes: Used both as in vitro translated 35S-labeled full-length protein and as the endogenous protein of human cell lines
B4: GST-Pak1 auto inhibitory domain (other)
chain: RFYRSILPGDKTNKKKEKERPEISLPSDFEHTIHVGFDAVTGEFTGMPEQWARLLQTSNITKSEQKKNPQAVLDVLEFYN
notes: as for B1
B5: GST-Pak1 N-terminal domain (amino acids 1-132) (other)
chain: MSNNGLDIQDKPPAPPMRNTSTMIGVGSKDAGTLNHGSKPLPPNPEEKKKKDRFYRSILPGDKTNKKKEKERPEISLPSDFEHTIHVGFDAVTGEFTGMPEQWARLLQTSNITKSEQKKNPQAVLDVLEFYN
notes: as for B1
B6: GST-DLC1 deletion construct lacking the C-terminal amino acids 67-89 (other)
chain: MCDRKAVIKNADMSEEMQQDSVECATQALEKYNIEKDIAAHIKKEFDKKYNPTWHCIVGRNFGSYV
notes: not shown: GST fusion partner at the N end and any linker to it

How the values were obtained:
[1] = biological target: T2, dynein light chain-1/protein inhibitor of nitric oxide synthase (DLC1/PIN), amino acids 1-89 (human, UniProt P63167 1-89); assay: GST pull-down with in vitro translated DLC1/PIN
T2 construct: Used both as in vitro translated 35S-labeled protein (aa 1-89) and as the endogenous protein of human cell lines (MCF-7, Ishikawa)

[2] = biological target: T2, dynein light chain-1/protein inhibitor …; assay: immunoprecipitation with HA antibody from Tet on-HA-Pak1-T423E MCF-7 cells, immunoblot
[3] = biological target: T1, estrogen receptor alpha (ER), …; assay: immunoprecipitation with anti-Pak1 Ab, immunoblot with ERα Ab
[4] = biological target: T1, estrogen receptor alpha (ER), …; assay: GST pull-down with in vitro translated 35S-ER

| Binder | binding result [1] | also measured |
| --- | --- | --- |
| B1 | no binding | – |
| B2 | – | binding result [2]: binds |
| B3 | – | binding result [3]: binds |
| B4 | no binding | – |
| B5 | no binding | – |
| B6 | – | binding result [4]: no binding |
